# Variants at the floor of the assay were thinned out.
# B1: TPR 5TU (parent)
# chain: GGAUCUUCUCGAUCUAACAAAAAAGACAAAUCUGCCACAAAGCUUGAGAGCAUCUUCGGAUGCAGAGGCGGCAGCCUUCGGUGGCGCGAUAGCGCCAACGUUCUCAACUAUGACACGCAAAACGCGUGCUCCGUUGAAUGGAGUUUAUCAUG
# Variants of: B1
# Test: polymerase ribozyme fitness, log enrichment relative to wild type (log ratio); higher = more active; in vitro selection for triplet polymerase activity
# In short: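 A heterodimeric triplet polymerase ribozyme had each of its subunits mutagenized by PCR into a library, which was transcribed. One round of in vitro selection, done in triplicate, annealed each library with a biotinylated primer, its partner subunit and triplets, then incubated it frozen at −7 °C before gel excision of extended constructs, streptavidin-bead capture and RT-PCR. Fitness is the logarithm of genotype enrichment relative to wild-type enrichment, based on Illumina sequencing of inputs and outputs and inverse-variance-weighted replicate averages. A base-2 logarithm is used, and genotypes were kept only with ≥10 input reads and ≥1 read per output.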
row,Variant,polymerase ribozyme fitness (log ratio)
1,GGAUCUUCUCGAUCUAACAAAAAAGACAAAUCUGCCACAAAGCUGGAGAGCAUCUUAGGAUGCAGAGGCGGCAGCCUUCGGUGGCGCGAUAGAGCCAACGUUCUCAACUAUGACACGCAAAACACGUGCUCCGUUGAAUGGAGUUUAUCAUG,-3.64
2,GGAUCCUCUCGAUCUAUCAAAAAAGACAAAUCCGCCACAAAGCUUGAGAGGAUCUUGGGAUGCAGAGGCGGCAGCCUUCGGUUGCGCGAUAGCGGCAGCGUUCUCAACUAUGACACGCAAAACGCGGGCUCCGUUGAAUGGAGUUUAUCAUG,≤ -4.2
3,GGAUCUUCUCGAUCUAACAAAAAAGACAAAUCUGCCACAAAGCUAGAGAUCAUCUUCGGAUGCAGAGGCGGCAGCCUUCGGUUGCGUGAUAGCGCCAACGUUUUAAACUAUGACACGCAAAACGCGUGCUCCGUUGAAUGGAGUUUAUCAUG,≤ -4.2
4,GGAUAUUCUCGAUCUAACAAAAAAGAUAAAUCUGCCACAAAGCUUGAGAGCAUCUUCGGAUGCAGAGGCGGCAGACUUCGGUGGCGCGAUAGCGCCAACGUUCUCAACUAUGACACGCAAAACGCGUGCUCCGUUGAAUGGGGUUGAUCAUG,≤ -4.2
5,GGAUCUUCUCGAUCUAACUAAAAAGACAAAUCUGCCACAAAGCUUGAGAGCAUCUUCGGAUGCAGAGGCGGCAGCCUUCGGUGGGGCGAUAGCGCCAACGUUCUCAACUAUGACACGCAAAACGCGUGCUCCGUUGAAUGGAGUUUAUCAUG,-2.18
6,GGAUCUUCUCGAUCUAACAAAAAAGACAAAUCUGCCACAAAGCUUGAGAGCAUCUUCGGAUGCAGAGGCGGCAGCCUUCGGUGGCGUGAUAGCGCCAACGUUCUCAACUAUGACACGCAAAGCGCGUGCUCCGUUGAAUGGAGUUUAUCAUG,-1.83
7,GGAUCUUCUCGAUCUAACAAAAAAGACAAAUCUGCCACAAAGCUAGAGAGCAUCAUCGGAUGCAGAGGCGGCAGCCUUCGGUGGCGCGAUAGUGCCAACGUUCUCAACUAUGACACGCAAAACGCGUGCUCCGUUGAAUGGAGUUUAUCAUG,-3.88
8,GGAGCUUCUCGAUCUAACAAAAAAGACAAAUCUGCCACAAUGCUUGAGAGCAUCUUCGGAUGCAGAGGCGGCAGCCUUCGGUGGCGCGAUCGCGCCUACGUUCUCAACUAUGACACGCAAAACGCGUGCUCCGUUGAAUGGAGUUUAUCAUG,≤ -4.2
9,GGAUCUUCUGGAUCUAACAAAAAAGACAAAUCUGCCACAAAGCUUGAGAGCAUCGUCGGAUGCAGAGGCGGCAGCCUUCGGUGGCGCGAUAGCGCCAACGUUAUCAACUAUGACACGCAAAACGCGUGCUCCGUUGAAUGGAGUUUAUCAUG,≤ -4.2
10,GGAUCUUCUCGAUCUAACAAAAAAGACAAAUCUGCCAUAAAGCUUGAAAGCAUCUUCGGAUGCAGAGGCGGCAGCCUUCGGUGGCGAGAUAGCGCCAACGUUCUCAACUAUGACACGCAAAACGCGUGCUCCGUUGAAUGGAGUUUAUCAUG,≤ -4.2
11,GGAUCUUCUCGAUCUAACAAAAAAGACAAAUCUGCAACAAAGCUUGAGAGCAUCUUCGGAUGCAGAGGCGGCAGCCUUCGGUGGCGCGAUAGCGUCAACGUUCUCAACUAUGACACGCAAAACGCGUGCUCCGUUGAAUGGAGUUUAUCAUG,-3.7
12,GGAUCUUCUCGAUCUAACAUAACAGACAAAUCUGUCACAAAGCUUGAGAGCAUCUUCGGAUGCAGAGGCGGCAGUCUUCGGUGGCGCGAUAGCGCCAACGUUGUCAACUAUGACACGCAAAACGCGUGCUCCGUUAAAUGGAGUUUAUCAUG,≤ -4.2
13,GGAUCUUCUCGACCUAACAAAAAAGACAAAUCUGCCACAAAGCUUGAGAGCAUCUUCGGAUGCAGAGGCGGCAGCCUUCGGUGGCGCGAUAGCGCCAACGUUCUCAACUAUGACACGCAGAACGCGUGCACCGUUGAAUGGAGUUUAUCAUG,-3.95
14,GGCUCUUCUCGAUCUAACAAAAAAGACAAAUCUGCCACAAAGCGUGAGAGCAUCUACGGAUGCAGAGGCGGCAGCCUUCGGUGCCGCGAUAGCGCCAACGUUCUCAACUAUGACACGCAAAACGCGUGCUCCGUUGAAUGGAGUUUAUCAUG,≤ -4.2
15,GGAUCUUCUCGAUGUAACAAAAAAGACAAAUCUGCCACAAAGCUUGAGAGCAUCUUCGGAUGCAGAGGCGGCAGCCUUCGGUGGCGCCAUAGCGCCAACGUUCUCAACUAUGACACGCAAAACGCGUGCUCCGUUGUAUGGAGUUUAUCAUG,≤ -4.2
16,GGAUGUUCUCGAUCUAACAAAAAAGACAAAUCUACCACAAAGCUUGAGAGCAUCUUCGGAUGCAGAGGCGGCAGCCUUCGGUGGCGCGAUAGCGCCAACGUUCUCAACUAUGACACGCAAAACGCGUGCUCCGAUGAAUGGAGUUUAUCAUG,-3.83
17,GGAUCUUCUCGAUCUAACAAAAGAGACAAAUCUGCCACAGAGCUUGAGAUCAUCUUCGGAUGCAGAGGCGGCAGCAUUCGGUGCCGCGAUAGCGCCAACGUUCUCAACUAUGACACGCAAAACGCGUGCUCCGUUGAAUGGAGUUUAUCAUG,≤ -4.2
18,GGAUCUUCUCGAUCUAACAAAAAAGACAAAUCUGCCACAAAGCUUGAGAGCAUCUUCGGAUGCAGAGGCGGCAGCCUUCGGUGGCGCGAUAGCGCCAUCGGUCUCAACUAUGACACGCAAAACGCGUGUUCCGUUGAACGGAGUUUAUCAUG,≤ -4.2
19,GGAUCUUCUCGAUCUAACAAAAAAGACAAAUCUGCCACAACGCUUGAGACCAUCAUCGGAUGCAGAGGCGGCAGCCUUCGGUGGGGCGAUAGCGCCAACGUUCUCAACUAUGACACGCAAAACGCGUGCUCCGUUGAAUGGAGUUUAUCAUG,≤ -4.2

row,Variant,polymerase ribozyme fitness (log ratio)
1,GGAUCUUCUCGAUCUAACAAAAAAGACAAAUCUGCCACAAAGCUUGAGAGCAUCUUCGGAUGCAGAGGCGGCAGCCUUCGUUGGAGCGAUAGCGCCAACGUUCUCAACUAUGACACGCAAAACGCGUGCUCCGUUGAAGGGAGUUUAUCAUG,-0.703
2,GGAUCUUCUCGAUCUAACAAAAUAGACAAAUCUGCCACAAAGCUUGAGAGCAUCUUCGGAUGCAGAGGCGGCAGCCUUCGGUGGCGCGAUGGCGCCAACGUUCUCAACUAUGACACGCAAAACGCGUGCUCCGUUGAAUGGAGUUUAUCAUG,≤ -4.2
3,GGAUCUUCUCGAUCUAACAAAAAAGACAAAUCGGCCACAAAGCUUGAGAGCAUCUACGGAUGCAGAGGCGGCAGCCUUCGGUGGCGCGAUUGCGCCAACGUUCUCAACUAUGACAUGCAAAACGCGUGCUCCGUUGAAUGGAGUUUAUCAUG,-3.95
4,GGAUCUUCUCGAUCUAACAAAAAAGAUAAAUCUGCCACAAAGCUUGCGAGCAUCUGCGGAUGCAGAGGCGGCAGCUUACGGUGGCGCGAUAGCACCUACGUUCUCAACUAUGACACGUAAAACGCGUGCUCCGUUGAAUGGAGUUUAUCAUG,≤ -4.2
5,GGAUCUUCUCGAUCUAACAAAUAAGACAAAUCUGCCACAAAGCUUGAGAGCAUCUUCGAAUGCAGAGGCGGCAGCCUUCGGUGGCGCGAUAGCGCCAACGUUCUCAACUAUGACACGCAAAACGCGUGCUCCGUUGAAUGGAGUUUAUCAUG,-0.47
6,GGAUCUUCUCGAUCUAACAAAAAAGACAAAUCUGCCACAAAGCUUGAGAGCAUCUUCGGAAGCACAGGCGGCAGCCUUCGGUGGAGCGAUAGCGCGAACGUUCUCAACUAUGACACGCAAAACGCGUGCUCCGUUGAAUGGAGUUUAUCACG,≤ -4.2
7,GGAUCUUCUCGAUCUAACAAAAAAGGCAAAUCUGCCACAAAGCUUGAGAGCAUCAUCGGAUGCAGAGGCGGCAGCCUUCGGUGGCGCGAUAGCGCCAACGUUCUCAACUAUGACACGCAAAACGCGUGCUCCGUUGAAUGGAGUUUAUCAUG,-2.03
8,GGAUCUUCUCGAUCUAACAAAAAAGACAAAUCUGCCACAAAGCUUGAGAGCAUCUUCCGAUGCAGAGGCGGCAGCCUUCGGUGGCGCGAUAGCGCCAACGUUCUCAACUAUGACACGCAAAACGCGUGCUCCGUUGAAUGGAGUUUAUCAUA,-2.01
9,GGAUCUUCUCGAUCUAACAAAAAAGACAAAUCUGCCACAAAGCUUGAGAGCAUCUUAGGAUGCAGAGGGGGCAGCCUUCGGUGGCGCGAUUGCGCCAACGUUCUCAACUAUGACACGCGAAACGCGUACUCCGUUGAAUCGAGUGUAUCAUG,≤ -4.2
10,GGAUCUUCUCGAUAUCACAAAAAAGACAAAUCUGCCACAAAGCUUAAGAGCAUCUUCGGAUGCAGACGCGGCAGCCUUCGGUGGAGCGAUAGCGACAACGUUCUCAACUAUGACACGCAAAACGCGUGCUCCGUUGAAUGGAGUUUAUCAUG,≤ -4.2
11,GGAUCUUCUCGAUCUAACAAAAAUGACAAAUCUGCCACAAAGCUUGAGAGCAUCUUCGGUUGCAGAGGCGGCAGCCUUCGGUAGCGCGAUAGCGCCAACGUUCUCAACUAUGACACGCAAAACGCGUGCUCCGUUGAAUGGAGUUUAUCAUG,-1.22
12,GGAGCUUCUCGAUUUAACAAAAAAGACAAAUCUGCCACAAAGCUUGAGAGCUUCUUCGGAUGUAGAGGCGGCAGCCUUCGGUGGUGCGAUAGCGCCAACGUUCUCAACUAUGACACGCAAAACGCGUGCUCCGUUGAAUGGAGUUUAUCAUG,-4.13
13,GGAUCUUCUCGAUCUAACAAAAAAGACAAAUCUGCCACAAAGCUUGAGAGCAUCUUCGGAUGCAGAGGCGCCAGCCUUCGGUGACGCGAUAGCGCCAACGUUCUCAACUAUGACACGCUAAACGCGUGCUCCGUUGAAUGGAGUUUAUCAUG,-2.68
14,GGAUCUUCUCGAUCUAACAAAAAAGACAAAUCUGCCACAAAGCUUGAGAGCCUCUUCGGAUGCAGAGGCGGCAGCCUUCGGUGGCGCGAUAGCCCCAACGUUCUCGACUAUGACACGCAAAACGCGUGCUCCGUUGAAUGGAGUUUAUCAUG,-1.86
15,GGAUCUUCUCGAUCUAACAAAAAAGACAAAUCUGCCACAUAGCUUGACAGCAUCUUCGGAUGCAGAGGCGGCAGCCUUCGGUGGGGCGAUAGCGCCAAAGUUCUCAACUAUGACACGCAAAACGCGUGCUCCGUUGAAUGGAAUUUAUCAUG,≤ -4.2
16,GGAUCUUCUCGAUCUAACAAAAAAGACAAAUCUGCCACAAAGCUUGAGAGACUCUUCGGAUGCAGAGGCGGCAGCCUUCGGUGGCGCGAUAGCGCCAACGUUCUCAACUAUGACACGCAAAACGCGUGCUCCGUUGAAUGGAGUUGAUCAUG,-2.06
17,GGAUCUUCUCGAUCUAACAAAAAAGACAAAUCUGCCACAAAGCUUGAGAGCAUCUUCGGAUGCAGAGGCGGCAGCCUUCGGUGGCGCGAUAGCGCCAACGUUCUCAACUAUGACACGUAAAACGCGUGCUCCGUUGAAUGGAGUUUAACAUG,-2.79
18,GGAUCUUCUCGAUCUAACAAAAAAGACAAAUCUGCCACAAAGCUUGAGAGCAUCUUCUGAUGCAGAGGCGGCAGCCUUCGGUGGCGAGAUAGCGCCAACGUUCUCAACCAUGACACGCAAAACGCGUGCUCCGUUGAAUGGAGUUUACCAUG,≤ -4.2
19,GGAUCUUCUCGAUCUAACAAAUAAAACAAAUCUGCCACAACGCUUGAGAGCAUCUUCGGAUGCAGAGGCGGCAGCCUUCGGUGGCGCGAUGGCCCCAACGUUCUCAACUAUGACACGCAAAACGCGUGCUCCGUUGAAUGGAGUUUAUCAUG,≤ -4.2

# Reference: the RNAGym collection of RNA variant scans (doi:10.1073/pnas.2313332121)
